Experimental findings from publication PMC8158265, “Inhibition of catechol-O-methyltransferase by natural pentacyclic triterpenes: structure–activity relationships and kinetic mechanism” (Journal of Enzyme Inhibition and Medicinal Chemistry, 2021) are described below.

Substrate in this series: O=c1oc2c(O)c(O)ccc2cc1-c1nc2ccccc2s1
As to the kind of experiment: Inhibition kinetics of human S-COMT catalysed O-methylation of 3-BTD. The note with it: other: 3-BTD as substrate, no inhibitor; pH 7.4; 37.0 °C. In kind it is biochemical.

B1: recombinant human S-COMT (Homo sapiens) (protein)
chain: MGDTKEQRILNHVLQHAEPGNAQSVLEAIDTYCEQKEWAMNVGDKKGKIVDAVIQEHQPSVLLELGAYCGYSAVRMARLLSPGARLITIEINPDCAAITQRMVDFAGVKDKVTLVVGASQDIIPQLKKKYDVDTLDMVFLDHWKDRYLPDTLLLEECGLLRKGTVLLADNVICPGAPDFLAHVRGSSCFECTHYQSFLEYREVVDGLEKAIYKGPGSEAGP
notes: made in house
The term Km denotes the concentration of substrate that gives half-maximal velocity. With B1, the Michaelis constant (Km) was determined as 0.38 ± 0.029 µM and the Vmax amounted to 13.8 ± 0.30 nmol/min/mg protein.
